The results in this text go back to patent US20080219947A1.

Assay [1] concerns the target QL9.β2m^b.L^d single chain trimer (murine) (UniProt P01887). As to the kind of experiment: flow cytometry on DLD-1 transfectants, 64-3-7 against 30-5-7 staining. (Flow cytometry measures light scatter and fluorescence of single cells or particles in a stream.)
The target of assay [2] is β2m^b.L^d single chain dimer (murine) (UniProt P01887). Described as above.
Assay [3] deals with MCMV.β2m^b.L^d single chain trimer (murine) (UniProt P01887). The assay is described as above.
In assay [4] the target is p29.β2m^b.L^d single chain trimer (murine) (UniProt P01887). The description is as above.
In assay [5] the target is epitope-tagged K^b (K^bR48Q.R50P), unattached (murine) (UniProt P01901). As to the kind of experiment: flow cytometry on LM1.8 transfectants.
Assay [6] concerns the target β2-microglobulin(L20).etK^b single chain dimer (murine) (UniProt P01887). Description: flow cytometry on LM1.8 transfectants.

Bounds are passed on as bounds.

Chain of UniProt P01901 (P01901 22-305, stated change not applied): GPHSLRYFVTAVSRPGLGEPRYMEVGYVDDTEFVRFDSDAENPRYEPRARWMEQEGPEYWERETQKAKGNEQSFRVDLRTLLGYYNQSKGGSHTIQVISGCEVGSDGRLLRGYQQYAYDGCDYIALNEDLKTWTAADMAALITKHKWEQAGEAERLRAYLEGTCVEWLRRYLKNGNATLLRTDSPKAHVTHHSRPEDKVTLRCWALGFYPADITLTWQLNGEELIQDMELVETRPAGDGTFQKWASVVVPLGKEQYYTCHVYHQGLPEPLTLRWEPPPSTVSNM

With mAb 64-3-7 (antibody), the percent of surface molecules detected in an open conformation in assay [1] is 22%; in assay [2], 39%; in assay [3], 22%; in assay [4], 8%. Also, the open conformers as a fraction of the sum of B8-24-3 and 64-3-7 fluorescence intensity in assay [5] and in assay [6] was greater than 10% each time.
